Results from patent US20260242735A1.

Assays:
Assay in all cases: alanine scan, flow cytometry
human CD33 G249A (human) = human CD33 G249A (human) (UniProt P20138)
human CD33 V257A (human) = human CD33 V257A (human) (UniProt P20138)
human CD33 T208A (human) = human CD33 T208A (human) (UniProt P20138)
human CD33 K215A (human) = human CD33 K215A (human) (UniProt P20138)
human CD33 N209A (human) = human CD33 N209A (human) (UniProt P20138)
human CD33 T211A (human) = human CD33 T211A (human) (UniProt P20138)
human CD33 L197A (human) = human CD33 L197A (human) (UniProt P20138)
human CD33 G260A (human) = human CD33 G260A (human) (UniProt P20138)
human CD33 V196A (human) = human CD33 V196A (human) (UniProt P20138)
human CD33 T200A (human) = human CD33 T200A (human) (UniProt P20138)
human CD33 A219S (human) = human CD33 A219S (human) (UniProt P20138)
human CD33 I227A (human) = human CD33 I227A (human) (UniProt P20138)
human CD33 D205A (human) = human CD33 D205A (human) (UniProt P20138)
human CD33 G241A (human) = human CD33 G241A (human) (UniProt P20138)
Chain of human CD33 G241A (human) (P20138 18-364 G241A limits assumed): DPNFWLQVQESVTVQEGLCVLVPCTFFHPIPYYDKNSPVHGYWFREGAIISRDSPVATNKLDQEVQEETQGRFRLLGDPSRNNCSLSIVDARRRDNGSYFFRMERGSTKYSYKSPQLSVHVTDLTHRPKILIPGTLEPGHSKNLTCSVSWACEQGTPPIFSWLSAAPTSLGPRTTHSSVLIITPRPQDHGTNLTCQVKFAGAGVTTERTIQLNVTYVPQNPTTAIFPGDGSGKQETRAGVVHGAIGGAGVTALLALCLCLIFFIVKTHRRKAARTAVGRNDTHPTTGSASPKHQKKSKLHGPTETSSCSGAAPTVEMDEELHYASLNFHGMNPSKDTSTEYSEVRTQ

human CD33 L229A (human) = human CD33 L229A (human) (UniProt P20138)
human CD33 A217S (human) = human CD33 A217S (human) (UniProt P20138)
Chain of human CD33 A217S (human) (P20138 18-364 A217S limits assumed): as the sequence (P20138 18-364 G241A limits assumed) above, with A200S, A224G counted along it

human CD33 I262A (human) = human CD33 I262A (human) (UniProt P20138)
human CD33 D246A (human) = human CD33 D246A (human) (UniProt P20138)
human CD33 F243A (human) = human CD33 F243A (human) (UniProt P20138)
human CD33 T239A (human) = human CD33 T239A (human) (UniProt P20138)
Chain of human CD33 T239A (human) (P20138 18-364 T239A limits assumed): as the sequence (P20138 18-364 G241A limits assumed) above, with T222A, A224G counted along it

human CD33 V221A (human) = human CD33 V221A (human) (UniProt P20138)
Chain of human CD33 V221A (human) (P20138 18-364 V221A limits assumed): as the sequence (P20138 18-364 G241A limits assumed) above, with V204A, A224G counted along it

human CD33 I242A (human) = human CD33 I242A (human) (UniProt P20138)
human CD33 T222A (human) = human CD33 T222A (human) (UniProt P20138)
human CD33 G218A (human) = human CD33 G218A (human) (UniProt P20138)
human CD33 T268A (human) = human CD33 T268A (human) (UniProt P20138)
Chain of human CD33 T268A (human) (P20138 18-364 T268A limits assumed): as the sequence (P20138 18-364 G241A limits assumed) above, with A224G, T251A counted along it

human CD33 V214A (human) = human CD33 V214A (human) (UniProt P20138)
Chain of human CD33 V214A (human) (P20138 18-364 V214A limits assumed): as the sequence (P20138 18-364 G241A limits assumed) above, with V197A, A224G counted along it

human CD33 G247A (human) = human CD33 G247A (human) (UniProt P20138)
human CD33 T226A (human) = human CD33 T226A (human) (UniProt P20138)
Chain of human CD33 T226A (human) (P20138 18-364 T226A limits assumed): as the sequence (P20138 18-364 G241A limits assumed) above, with T209A, A224G counted along it

human CD33 K250A (human) = human CD33 K250A (human) (UniProt P20138)
human CD33 P203A (human) = human CD33 P203A (human) (UniProt P20138)
Chain of human CD33 P203A (human) (P20138 18-364 P203A limits assumed): as the sequence (P20138 18-364 G241A limits assumed) above, with P186A, A224G counted along it

human CD33 Q204A (human) = human CD33 Q204A (human) (UniProt P20138)
human CD33 S248A (human) = human CD33 S248A (human) (UniProt P20138)
human CD33 P238A (human) = human CD33 P238A (human) (UniProt P20138)
human CD33 T253A (human) = human CD33 T253A (human) (UniProt P20138)
human CD33 A255S (human) = human CD33 A255S (human) (UniProt P20138)
human CD33 V267A (human) = human CD33 V267A (human) (UniProt P20138)
human CD33 V258A (human) = human CD33 V258A (human) (UniProt P20138)
human CD33 E252A (human) = human CD33 E252A (human) (UniProt P20138)
human CD33 P244A (human) = human CD33 P244A (human) (UniProt P20138)
Chain of human CD33 P244A (human) (P20138 18-364 P244A limits assumed): as the sequence (P20138 18-364 G241A limits assumed) above, with A224G, P227A counted along it

human CD33 A269S (human) = human CD33 A269S (human) (UniProt P20138)
Chain of human CD33 A269S (human) (P20138 18-364 A269S limits assumed): as the sequence (P20138 18-364 G241A limits assumed) above, with A224G, A252S counted along it

human CD33 G245A (human) = human CD33 G245A (human) (UniProt P20138)
human CD33 A265S (human) = human CD33 A265S (human) (UniProt P20138)
human CD33 E224A (human) = human CD33 E224A (human) (UniProt P20138)
human CD33 P201A (human) = human CD33 P201A (human) (UniProt P20138)
human CD33 R202A (human) = human CD33 R202A (human) (UniProt P20138)
human CD33 G256A (human) = human CD33 G256A (human) (UniProt P20138)
Chain of human CD33 G256A (human) (P20138 18-364 G256A limits assumed): as the sequence (P20138 18-364 G241A limits assumed) above, with A224G, G239A counted along it

human CD33 L210A (human) = human CD33 L210A (human) (UniProt P20138)
human CD33 Q213A (human) = human CD33 Q213A (human) (UniProt P20138)
Chain of human CD33 Q213A (human) (P20138 18-364 Q213A limits assumed): as the sequence (P20138 18-364 G241A limits assumed) above, with Q196A, A224G counted along it

human CD33 I199A (human) = human CD33 I199A (human) (UniProt P20138)
Chain of human CD33 I199A (human) (P20138 18-364 I199A limits assumed): as the sequence (P20138 18-364 G241A limits assumed) above, with I182A, A224G counted along it

human CD33 G220A (human) = human CD33 G220A (human) (UniProt P20138)
human CD33 V234A (human) = human CD33 V234A (human) (UniProt P20138)
human CD33 Q251A (human) = human CD33 Q251A (human) (UniProt P20138)
Chain of human CD33 Q251A (human) (P20138 18-364 Q251A limits assumed): as the sequence (P20138 18-364 G241A limits assumed) above, with A224G, Q234A counted along it

human CD33 C212A (human) = human CD33 C212A (human) (UniProt P20138)

With Refmab #7 (WM53) (antibody) the Mean % WT Binding (human CD33 G249A (human)) was 114 % WT binding, the Mean % WT Binding (human CD33 V257A (human)) was 124 % WT binding and the Mean % WT Binding (human CD33 T208A (human)) was 102 % WT binding. The Mean % WT Binding (human CD33 K215A (human)) was 145 % WT binding, the Mean % WT Binding (human CD33 N209A (human)) was 128 % WT binding and the Mean % WT Binding (human CD33 T211A (human)) was 98.1 % WT binding. It also gave a Mean % WT Binding (human CD33 L197A (human)) of 115 % WT binding, a Mean % WT Binding (human CD33 G260A (human)) of 87.2 % WT binding and a Mean % WT Binding (human CD33 V196A (human)) of 117 % WT binding. The Mean % WT Binding (human CD33 T200A (human)) was 97.6 % WT binding, the Mean % WT Binding (human CD33 A219S (human)) was 121 % WT binding and the Mean % WT Binding (human CD33 I227A (human)) was 101 % WT binding. The Mean % WT Binding (human CD33 D205A (human)) was 0.8 % WT binding, the Mean % WT Binding (human CD33 G241A (human)) was 131 % WT binding and the Mean % WT Binding (human CD33 L229A (human)) was 114 % WT binding. It also gave a Mean % WT Binding (human CD33 A217S (human)) of 114 % WT binding, a Mean % WT Binding (human CD33 I262A (human)) of 119 % WT binding and a Mean % WT Binding (human CD33 D246A (human)) of 99.5 % WT binding. It also gave a Mean % WT Binding (human CD33 F243A (human)) of 91.8 % WT binding, a Mean % WT Binding (human CD33 T239A (human)) of 112 % WT binding and a Mean % WT Binding (human CD33 V221A (human)) of 99.7 % WT binding. It also gave a Mean % WT Binding (human CD33 I242A (human)) of 105 % WT binding, a Mean % WT Binding (human CD33 T222A (human)) of 110 % WT binding and a Mean % WT Binding (human CD33 G218A (human)) of 123 % WT binding. It also gave a Mean % WT Binding (human CD33 T268A (human)) of 148 % WT binding, a Mean % WT Binding (human CD33 V214A (human)) of 120 % WT binding and a Mean % WT Binding (human CD33 G247A (human)) of 123 % WT binding. It also gave a Mean % WT Binding (human CD33 T226A (human)) of 99.1 % WT binding, a Mean % WT Binding (human CD33 K250A (human)) of 118 % WT binding and a Mean % WT Binding (human CD33 P203A (human)) of 113 % WT binding. For the same substance, the Mean % WT Binding (human CD33 Q204A (human)) was 117 % WT binding, the Mean % WT Binding (human CD33 S248A (human)) was 113 % WT binding and the Mean % WT Binding (human CD33 P238A (human)) was 129 % WT binding. It also gave a Mean % WT Binding (human CD33 T253A (human)) of 112 % WT binding, a Mean % WT Binding (human CD33 A255S (human)) of 121 % WT binding and a Mean % WT Binding (human CD33 V267A (human)) of 92.6 % WT binding. It also gave a Mean % WT Binding (human CD33 V258A (human)) of 98.8 % WT binding, a Mean % WT Binding (human CD33 E252A (human)) of 120 % WT binding and a Mean % WT Binding (human CD33 P244A (human)) of 99 % WT binding. The Mean % WT Binding (human CD33 A269S (human)) was 118 % WT binding, the Mean % WT Binding (human CD33 G245A (human)) was 122 % WT binding and the Mean % WT Binding (human CD33 A265S (human)) was 110 % WT binding. It also gave a Mean % WT Binding (human CD33 E224A (human)) of 126 % WT binding, a Mean % WT Binding (human CD33 P201A (human)) of 110 % WT binding and a Mean % WT Binding (human CD33 R202A (human)) of 104 % WT binding. The Mean % WT Binding (human CD33 G256A (human)) was 106 % WT binding, the Mean % WT Binding (human CD33 L210A (human)) was 98.6 % WT binding and the Mean % WT Binding (human CD33 Q213A (human)) was 103 % WT binding. For the same substance, the Mean % WT Binding (human CD33 I199A (human)) was 115 % WT binding, the Mean % WT Binding (human CD33 G220A (human)) was 120 % WT binding and the Mean % WT Binding (human CD33 V234A (human)) was 98.6 % WT binding. For the same substance, the Mean % WT Binding (human CD33 Q251A (human)) was 108 % WT binding and the Mean % WT Binding (human CD33 C212A (human)) was 17.8 % WT binding.
